Reference: the supplement of paper PMC10126150
± gives the standard deviation of the averaged measurements.

Test system: ATP
Test: switch fluorescence ratio, 500 uM ATP over buffer (Cy3 cluster intensity, sum of 5 cycles each) (fold (ratio)); higher = stronger signal-on switching upon ATP binding; sequences stand for … in TCGTCGGCAGCGTCAGATGTGTATAAGAGACAGTTTTTTTTTTTTTTTTTTTTTTTTT…TC
Conditions: aptamer strand: ATP DNA aptamer (quencher-CACCTGGGGGAGTATTGCGGAGGAAGG + anchor), 100 nM annealed; ATP concentration: 500 uM
Summary of the method: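 The quencher-labelled ATP aptamer, at 100 nM, was annealed to Cy3-labelled switching-strand clusters on a modified Illumina MiSeq flow-cell. The clusters were imaged in selection buffer, then after 15 min with 500 uM ATP at 22 °C, and this buffer/ATP cycle ran five times with NaOH stripping and re-annealing between runs. Per-cluster fluorescence ratios, summed target-cycle over summed buffer-cycle Cy3 intensity, were averaged per switch-domain sequence. Clusters outside 100-1000 RFU were excluded.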
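Further: ATP exposure 15 min at 22 °C before imaging.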

| Sequence | switch fluorescence ratio |
| --- | --- |
| TTTTGGGGGA | 0.999 ± 0.04 |
| ACATGATTGG | 0.97 ± 0.037 |
| AATTTTGCGG | 1.01 ± 0.038 |
| GTAAGAAGGA | 1.02 ± 0.07 |
| TCAACTTTTT | 1.01 ± 0.02 |
| ATGATGCAGA | 1.004 ± 0.008 |
| CCTGGCATGC | 2.56 ± 0.24 |
| GGTTCTGGCG | 0.992 ± 0.045 |
| CCCGTTTTTG | 0.986 ± 0.014 |
| ATTGGATCGA | 1.01 ± 0.054 |
| TTGTTGCGGG | 0.977 ± 0.019 |
| CCGGCTTAGA | 1.14 ± 0.2 |
| GTGGAAATCA | 1.01 ± 0.029 |
| ATGTATCATG | 1 ± 0.033 |
| ATGACTTGCG | 1 ± 0.023 |
| AAGGGGATT | 1.01 ± 0.027 |
| CGTGAAAGCG | 0.9683 ± 0.005 |
| GGTGTGAGAG | 1.02 ± 0.038 |
| GTGGTGGGGA | 1 ± 0.024 |
| TTTTCCGCCC | 3.08 ± 2.9 |
| TAGGTGCAGG | 1.08 ± 0.068 |
| CGGGGCAAGG | 0.984 ± 0.057 |
| TGAGGCGGGG | 0.9642 ± 0.0059 |

| Sequence | switch fluorescence ratio |
| --- | --- |
| CATTGGGTTT | 0.975 ± 0.052 |
| GACACTCAGG | 1.083 ± 0.0013 |
| ATGCGGGTGC | 1.04 ± 0.039 |
| AGTGTAATTT | 0.973 ± 0.02 |
| GCGGCTGATG | 1.02 ± 0.012 |
| AAAGGTAAGG | 0.965 ± 0.016 |
| GGGTAGAAAG | 0.97 ± 0.013 |
| CAGTAAGATC | 1.026 ± 0.0056 |
| GGTAAAAATT | 0.98453 ± 0.00014 |
| CTGGTAACCG | 1 ± 0.06 |
| AATGCAGGTA | 1.03 ± 0.027 |
| CAAGACAACT | 1.03 ± 0.033 |
| TTGAGGTTTG | 1.03 ± 0.019 |
| TTTTTATAAC | 1 ± 0.031 |
| GGATTAATCG | 1 ± 0.015 |
| GCATGGGTAG | 0.982 ± 0.018 |
| TCCTGGTGCG | 1.13 ± 0.024 |
| CGTGGTTGTC | 0.9871 ± 0.0066 |
| TCTTGGATCT | 0.987 ± 0.055 |
| GGAGGAAGGC | 1.75 ± 0.58 |
| ACCAGGTCTA | 1.07 ± 0.017 |
| ACCACGAATG | 1.025 ± 0.0051 |
| GAGGAGGGGT | 0.989 ± 0.039 |

| Sequence | switch fluorescence ratio |
| --- | --- |
| TCGTCGCTTT | 1.04 ± 0.026 |
| TTTAAAGCGG | 1.01 ± 0.026 |
| CTGGTGTTCT | 1.01 ± 0.017 |
| CCACGATTAA | 1.003 ± 0.008 |
| TACGAATAGA | 1.056 ± 0.0097 |
| TACGATGACT | 1.19 ± 0.11 |
| AGCCATTTGT | 1.015 ± 0.0063 |
| TTTAGGGATT | 1.03 ± 0.037 |
| CTCTTAGGAT | 1.02 ± 0.023 |
| TTGACGGGCT | 1.05 ± 0.043 |
| TTGGGGGTGC | 0.997 ± 0.052 |
| GTCGTATGAG | 1.01 ± 0.028 |
| AGGTACCGTT | 1.033 ± 0.0017 |
| ATTTTTCGTT | 1 ± 0.03 |
| GGTTGAGTCG | 0.989 ± 0.014 |
| TTGGGGGAAC | 1 ± 0.014 |
| AAGCTAATTT | 1.01 ± 0.011 |
| TCTTAGTTGT | 0.988 ± 0.024 |
| ATGTTTTTTC | 0.977 ± 0.037 |
| ACTCCCGAAT | 1.865 ± 0.0096 |
| TTTGGTGATA | 0.943 ± 0.01 |
| GGTTCGGGGT | 0.982 ± 0.012 |
| CGGTCCCGGC | 1.03 ± 0.05 |

| Sequence | switch fluorescence ratio |
| --- | --- |
| TATCGCTGGT | 1.04 ± 0.023 |
| CCGGTCTAGC | 1.14 ± 0.041 |
| AACGGAGAGC | 1.034 ± 0.01 |
| GGAATTGCA | 0.958 ± 0.022 |
| GGATGGGGTG | 1.01 ± 0.053 |
| AGCACGTTTT | 1.01 ± 0.025 |
| ATTGATTGAC | 1.05 ± 0.043 |
| TTGTTGTTAT | 0.991 ± 0.017 |
| GGTCGGGTTT | 1.01 ± 0.014 |
| ACAGCCCGGA | 1.07 ± 0.04 |
| ATGTACGTAG | 1.03 ± 0.025 |
| TTCGGGAAAA | 0.982 ± 0.016 |
| TAGAATTTTT | 0.998 ± 0.017 |
| TTTTAAGTGA | 1.02 ± 0.05 |
| ACGTATTTTG | 1.08 ± 0.045 |
| GCGTTTAGAT | 1.02 ± 0.013 |
| TTTTTAAACA | 1.01 ± 0.068 |
| GCGGAGGGGC | 1.0106 ± 3e-05 |
| GGAACACTGT | 0.9955 ± 0.0077 |
| TATGGGGTTT | 1.01 ± 0.031 |
| TTGGATGTAA | 1 ± 0.036 |
| CATTATTGTT | 0.999 ± 0.033 |
| CTGGTTTTCG | 1 ± 0.021 |

| Sequence | switch fluorescence ratio |
| --- | --- |
| GAGGTTTTTT | 0.987 ± 0.021 |
| GGTAATTCTG | 0.9837 ± 0.0033 |
| CGATGTATAA | 1.01 ± 0.025 |
| TTAGGAGATG | 0.9802 ± 0.0059 |
| CTTTAATCC | 1.27 ± 0.48 |
| CGTATGGCCA | 1.0198 ± 0.00072 |
| ATCAGATAGG | 1 ± 0.026 |
| CATAGGGGAG | 1.042 ± 0.01 |
| CTATTTTGAT | 0.979 ± 0.024 |
| GTGAGGGGCG | 0.964 ± 0.035 |
| GAATCATACA | 1.05 ± 0.074 |
| TTTTAGGAGA | 1.02 ± 0.026 |
| AGGGTTAGCA | 1.02 ± 0.021 |
| AATACAGTGA | 0.9986 ± 0.00012 |
| TCGAATGGCC | 0.994 ± 0.024 |
| GAATGGGGAT | 1.01 ± 0.076 |
| TTCCCTGAGA | 0.977 ± 0.025 |
| GCTGTAAGTT | 0.9897 ± 0.0067 |
| TGGGGGTGGC | 1.01 ± 0.052 |
| CACGAGAAGT | 1.044 ± 0.0047 |
| GATTGTGCTG | 0.988 ± 0.01 |
| AAATACGAGA | 1.06 ± 0.024 |
| ATTTTTGGCG | 0.9867 ± 0.0088 |

| Sequence | switch fluorescence ratio |
| --- | --- |
| TTTGACTTAG | 1.02 ± 0.043 |
| AGTGTATATG | 1.1 ± 0.099 |
| AGTTGCTTGT | 1.01 ± 0.036 |
| GATTTGAAAC | 1 ± 0.031 |
| CAGGCTCTTT | 0.978 ± 0.036 |
| GTGGATTTGA | 1.01 ± 0.013 |
| AATAGTGGGT | 1 ± 0.013 |
| GGAAACACAG | 1.02 ± 0.035 |
| CTCTTTTGGT | 0.975 ± 0.02 |
| ATTTTATGCC | 1.01 ± 0.031 |
| GCGTGGGGCG | 0.996 ± 0.011 |
| TTTGAATGGA | 1 ± 0.012 |
| GGGAAGAGGC | 1.01 ± 0.038 |
| CTTATGAAGG | 0.989 ± 0.024 |
| TATACTCCTG | 1.16 ± 0.041 |
| GCTAACCGGG | 1 ± 0.0097 |
| GAAGGTGAGT | 1.03 ± 0.014 |
| ATCAATGAAG | 0.975 ± 0.023 |
| CATTTGTGGG | 0.993 ± 0.017 |
| TAAGGATGGT | 0.997 ± 0.01 |
| ATGAGGTTTG | 1.01 ± 0.019 |
| TGGGTATCTT | 1.03 ± 0.061 |
| AGTGGATTCT | 1.004 ± 0.0022 |

| Sequence | switch fluorescence ratio |
| --- | --- |
| TGAAAAGAAG | 1.029 ± 0.0061 |
| GATGATATGG | 0.9852 ± 0.0039 |
| CCCTTGTGTG | 1.43 ± 0.051 |
| CGGTGTTGTC | 0.964 ± 0.0037 |
| TGAGTTTCCA | 0.958 ± 0.011 |
| TTTGTTAGC | 1.03 ± 0.019 |
| CAGCTATCTT | 1.039 ± 0.01 |
| CATGGGGGGT | 0.994 ± 0.014 |
| TTCTGGGGAG | 1.03 ± 0.051 |
| AGTTAACTTT | 1.02 ± 0.028 |
| CAAAAATGTT | 1.17 ± 0.19 |
| ATTATTTGAC | 1.08 ± 0.067 |
| GATGGGGGGC | 1.01 ± 0.043 |
| GAATTGGCCT | 1.02 ± 0.019 |
| GAGACCAATC | 1.023 ± 0.008 |
| TGGAGGAAGA | 1.04 ± 0.055 |
| CAGATTTGTT | 0.992 ± 0.018 |
| AGCGTGTGTG | 1.05 ± 0.059 |
| TGTTTGAAGT | 0.989 ± 0.023 |
